Assay results from patent EP1577321A1.

Molecular target: patched (on patched-transfected EBNA-293 cells)
Assay: FACS competition with Shh-Ig on patched-transfected EBNA-293 cells

soluble human Sonic hedgehog N-terminal fragment (unmodified, produced in E. coli) (from UniProt Q14623 28-201) (ligand)
IC50: 0.15 µg/mL

tethered human Sonic hedgehog (N-terminal palmitoyl, C-terminal cholesterol) purified from High Five insect cells (from UniProt Q14623 28-201) (ligand)
IC50: 0.4 µg/mL
